According to the NTF2 design screens of Basanta et al. (2020):

Assay: protease stability score; higher = more stable; yeast display proteolysis, trypsin and chymotrypsin;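 further: log10 excess protease needed over predicted unfolded state with 0 meaning unfolded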

| Sequence | protease stability score |
| --- | --- |
| DEKKVKELVDTLFDVMRKGDAERFRRYLKPDVRFEFGDITMQGPDQMEKYYRQDQKYGNEMHIKHKEVHGDRAKVTYDVEIKGTRATVEAEVHVRDEKVDEAKAEFDEDYKKYFTKG | -0.121 |
| DEKKVKEMVTEAQKAIENNDSDTMAKFLKPDVEFHFGDVKLKGPEDVKKYYDKVRRVGMEAHVKEAEVKGDTAQVVYDVEVKGKRVTITARVQMKDERVDRAEVELDEDYAREVTEG | -0.02 |
| DEKKVKKVADKVMRVAANGDNETARKLGKPDVTFEAGSNKMRGVEQVDKYYEKVKRQGNELHIKEVKVEGDRAKVKYDIKIGGTEMTVTAEVYIENDKVEKARIEMDEDYEKKVTKG | -0.338 |
| DEKKVLEVIQKFAEAIKDGNAEQAKKLGKEGIQVHIGDETINGPDQVEKYVKKVKDLGNEVHYKEKEVKGDEVTVHTEVKMGDQTVHFEVHYRAKDDKVEQFHVKFDKDEARRFKTS | -0.27 |
| DEKKVQEVAKDALKVDLQGDVEKMKKLGKPDVTFQLGDQEVHGPDDLKKYYDKVKRLGEEIHVKKVKVEGDKMQAHYELRVAGKQATVTVEVTVKDEKVEEARAEMTEKYKKALEEG | -0.154 |
| DEKKVREFMERLFKAAENGNKDELRKVLMPNVKYQYVDKEKEGEEVAKEVAKAVKKVGAEIKKQEERVKGDTVEAVFQYKQGDTTVQTTVQIKYEGDKAKEVRVKLSDEVKKIVHRG | -0.079 |
| DEKKWEQWARHFNQLMKQNDPDTLMQLFDPNARVKYGDKEVHGRTQIVKMWQTLVEQVDHIRIKNYSVSGDHVVIEIIVVVNGQEVEFVFRARVHNGTIKSASIDYRNEEHYKRAQG | 0.264 |
| DEKKYEELLREVQKYLYQGNYEEAQKVLAPNVVFEVGDYKMNGLEQVMKYYKKVKDRGAEIHVEEMEVTGHKARVVYKLHVGGRTIEVTAEVKVEDERVKKARVEVSEEYVKHVQHG | 1.61 |
| DEKLEKLVDEFIEAEHTNNPEELKKLIDPNARFRIGDKDVHGREEWNEDMKRINDELRIEVHIKHVDARGDHVDIEMEFTFNVNGRPVNQTAKQQIKFENGRMKRVVNNVSEDQVEQLHR | 0.194 |
| DEKLHHQIKEFIKAMKNGDPDKVQELADPNAEFRVGDKEIHGMDKYHKTVHDRHRKQRVNIQLHQLTVKGDKAEFVVTIDVQHNGQPSNDVYRAVIKLKNGKIQVVDRQKDQ | -0.138 |
| DEKLIKLLKSLLKIQESGDPDKLRTMADPNVRFNIGDKVFHGMEEYATHVVELRKQAHIRIERLSNSDSNGVVNADFTRVNNHNGKPDSRRQEVTYVAHGDRIKEVNNQDHQ | -0.503 |
| DEKLLDLLEKILQAEHENDPDQARELADPNVKYRYGDKSVNGRHEWVKDLERKTQKIKVEYKRIQVDAKGDKAHANVHMTVNHNGKPDKVLMEIVVRAHNGKVTELTVHEDK | 0.041 |
| DEKLLELAKKMRRAEETGDEDQLREMADKDAKFDIGDKRIHGMDTFVRQIKHELDKMRREITSVEFRVEGEEVVIHVHWVYSHNGQPRTKEYTMKFEIRGDKIKDLHIDNRG | 0.007 |
| DEKLLKRLEEFWKAVRKGNKQEIEEYADPNVRFQIGDKQVHGRENAKKYFHDERREIRIEYHDLKVRVRGDRIEIRYTVQYTHNGQPTERHYDIEIVLNGEKMKSMSVRTDR | -0.026 |
| DEKMLQHMEDALRRNDEQRLVELVDEDVKIKIGDRDVHGSERAQKIAETRKERIDSQDFKSMDLSGNKVTVDRVVVVNGVKFRVVVIYELSNGRIKRIEVRVTDEENKRRLQKQLS | 0.63 |
| DEKNDRVLRRVMEAIHRGDPDKIHNQLDPNVKAEVGDKRFHGMEHIVEQVKRNWDNMRMRMKDVTVEDHNGQANAKVTYEVTENGQPKRAHVTVQAHAHDGRLTSVTYDTHE | -0.371 |
| DEKNEDAARKLFNAWKQNDPDHARKLADPNVRFKYGDTQVHGRDQYARELRETNKQMRLEYKHVTIRVKNGNAEVNMNVRYNHNGQPRESTRRMTFKVENGKLVDVDIKTDK | 0.133 |
| DEKNLNQLKDLIKTNDEERIHELMDPNVRLVIGDQEVQGRENVFKVLKRWRERADHVRYNDLKLHDGRAFADVEINVNGENIRVHYVYVAHNGRIKEIKVTATDEDEQRKVEDNYK | 1.37 |
| DEKNMRVVETYLKALTRGDPDQAMRQVDEDVELTVGDKEVKGREEFSKLVKKWQDQARFSLQIHRVKVHENHVNINAEVTWDVNGKPQSFSHIIHARVHNGRIKHMSWEVPTEEWQNIEK | 1.29 |
| DEKNSKLAKDFFEAIESNNPEHAKELADENARYQVGDKQLHGMDEVLKHIKRENERAQVTVSSMTFRISNGRVEVHMDVQRDDNGDPDKKNLVVNFHFRNGKIKEVQDKNDS | 0.614 |
| DEKQADRAEKFMRALNEGNEDQATRLFDPNAHVVYGDTEVHGRERIRETIRNLQREMSVRYEVHRIEDRNGHVNLHADVTLQHNGRPARYVLTINVRADNGTIVSLNMRVPEEEKEKMKG | 0.15 |
| DEKQAKELADEYIKAFEEGDPDKHQELVDKDAQVNYGDKTLHGREEFRKLVEELRRQADHISVHNVDYQGNKVVVHYVVDVNGHKVELSYTVQYHDGRMKQASVSYRSEDLKREQEQ | 0.384 |
| DEKQAKKVLKQMVKAVFNNDEELLKKLGKEDVEVQFMDTKYKGPDQLKKILEQYKRYGIEFHIKKTKVEGDKMQVHAQVHLADNTADVTAEYQADNGKVDHTRVQFSDTAKEVFKKG | -0.003 |
| DEKQALDVAHEAARAVAEGDDQKLREHMDPNATMEYGDKQVHGRENIMRVAKEFRDRADNVEIKSVHLTGNKVNVHVLLTHNGHTQRVRIDAKAHNGRVKSIRLDDK | 1.06 |
| DEKQDKHYKKMMDEGDWKHFANNADPNARVDIGDKEYHGREQVNKALRRISEQADDFRVHDVQVENGRVRADVEFHVNGRSLKVDIRAVLHNGEVTHFHMSVTSEEVKQMLREIFD | 0.289 |
